Publication PMC10450164 (Nucleic Acids Research, 2023)

B1: TFAP2A DBD-HSH tandem domain (aa 203-420) (domain or fragment)
chain: not shown
B2: TFAP2A HSH domain (aa 279-411) (domain or fragment, human, UniProt P05549 279-411, looked up)
chain: GRRKAANVTLLTSLVEGEAVHLARDFGYVCETEFPAKAVAEFLNRQHSDPNEQVTRKNMLLATKQICKEFTDLLAQDRSPLGNSRPNPILEPGIQSCLTHFNLISHGFGSPAVCAAVTALQNYLTEALKAMDK
B3: TFAP2B DBD-HSH tandem domain (aa 219-457) (domain or fragment)
chain: not shown

Assays:
SEC = target: the molecule itself; assay: SEC
crystal structure = target: the molecule itself; assay: crystal structure

Protein | stoichiometry N (SEC) | binding result (crystal structure)
B1 | 2 | 
B2 | 2 | 
B3 |  | binds
